Results: the supplement of paper PMC12764529
± gives the half width of the 95% confidence interval.

Legend:
[1] = folding stability dG unfold (combined trypsin and chymotrypsin); higher = more stable
In short: (§1)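 Unfolding free energy was derived, per protease or combined, against a sequence-predicted unfolded-state K50 and a shared folded-state K50, starting from K50 inferred by Bayesian fitting of sequencing counts. Digestion with trypsin and chymotrypsin was carried out on designed mini-proteins under 80 residues without cysteine in a PA-tagged cDNA display construct. Only designs with AlphaFold2 dimer inter-PAE above 15 were kept.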

[2] = folding stability dG unfold from trypsin proteolysis; higher = more stable
In short: as §1

[3] = folding stability dG unfold from chymotrypsin proteolysis; higher = more stable
In short: as §1

Row | Sequence | folding stability dG unfold [1] [kcal/mol] | folding stability dG unfold [2] [kcal/mol] | folding stability dG unfold [3] [kcal/mol]
1 | SAGGSAGGSAGGLEIEFWFFFPDEGYMIEVEWERDPDGPIEPTKITEIHPMPDGQPNPGFSAGGSAGGSAGG [r11_750_TrROS] | 1.94 ± 0.087 | 1.81 ± 0.059 | 2 ± 0.04
2 | SAGGSAGGSAGGRKLAIKIEIEEVKTETRIRPDGKTETRTELRIKIEIRPVPHPDDPELLSAGGSAGGSAGG [r7_523_TrROS_Hall] | 2.34 ± 0.25 | 2.99 ± 0.12 | 1.95 ± 0.056
3 | SAGGMEFEFTREDGRKTRVELEVNPETGEVTEKIYVGGKLLYTFKDGELKYIPDEVAAARIEARLPPESAGG [r13_958_TrMRF] | 1.45 ± 0.11 | -0.0213 ± 0.12 | 1.84 ± 0.079
4 | KSKEEQKEQQEEQQKPPPVEIKVEVEVVKSPNGNPYFQFNVEYYDPGDGEPIGEITISVPPDDVDELADEFS [r1_415_TrROS] | 2.46 ± 0.71 | 1.97 ± 0.4 | 2.63 ± 0.25
5 | SAGGGDLEVELVEEREFTFPDGLRRRLLVVRFPDGFLAIPVYVRPPGGGWRLLARFVLRIGPPRPEEGSAGG [r13_494_TrMRF] | 3.82 ± 0.08 | 3.22 ± 0.054 | 4.29 ± 0.043
6 | SKTYTAEEIKKLFPNIKKVEVKDGKVRLTVENENGEKFEIEITFEAPKPEPEVEEEVEKKKEEELSEEDLSA [r9_427_TrROS_Hall] | 1.65 ± 0.31 | 1.28 ± 0.061 | 2.62 ± 0.14
7 | SAGGPVIEVESLEELKKALELLKEGKEVVIRVRVRRTETLPDGRKRVEEREVVYRATVEDGKLTIEPLSAGG [r13_835_TrROS_Hall] | 3.56 ± 0.12 | 2.93 ± 0.092 | 3.91 ± 0.13
8 | SAGGSAKLTAEEIKKLPPNARIYFDKETGRVFIEVDGKLVVIEIDKETKEVKVVKVFPSKEALEKASAGGSA [r15_6_TrROS_Hall] | 1.82 ± 0.12 | 1.57 ± 0.054 | 1.86 ± 0.1
9 | SAGMISPEEIAKRLKAGEPVEIYLPDPAEKEALLAELQKLLGLSEEELKEIFAKMKFTEIPATDPRLLASAG [r5_368_JUSTAS] | 1.67 ± 0.046 | 1.16 ± 0.045 | 2.03 ± 0.058
10 | SAGGEKVKRVLVRDKKTKEWREVEVKEAKVEPPPVITIKIELSEEEAKKLAELLRKLFPDAKVTVVKSAGGS [r8_437_TrROS_Hall] | 3.98 ± 0.31 | 4.15 ± 0.35 | 3.82 ± 0.24
11 | SAGGSAGGSAGGPYVVKVKLKDGSVVELPVEEDHIPTIEDLVKAGIPPELIESVEIEPESAGGSAGGSAGGS [r10_565_TrMRF] | 2.91 ± 0.1 | 2.57 ± 0.12 | 3.09 ± 0.093
12 | SAGGSAGGSAGPFKIEMTFIFKKDNEYYIAKIEIEISPDGYPKMKIEIKKVDINELENYFSAGGSAGGSAGG [r11_690_TrMRF] | 4.04 ± 0.4 | 2.52 ± 0.15 | 4.39 ± 0.14
13 | SAMKKLTEEEIEKLAKELAKEGKVEIKIKVEKKVVKNKNGKKKEVTKVKIEIKAPPEAKKKLEKLKKKLSAG [r14_628_TrROS_Hall] | 0.359 ± 0.79 | 0.415 ± 0.34 | 0.992 ± 0.19
14 | SAGGSAGGSAGVRDPDNGEPMPPGDWVIRHRDNEKPHHFLIPPNNAEEFAEDNGIEIHKVSAGGSAGGSAGG [r17_109_TrROS] | 1.32 ± 0.35 | 1.42 ± 0.23 | 1.24 ± 0.14
15 | SAGWKPITAEEIKKLVKEFAEKAPPGDKRPVTVEIRLPLPNGRHWVFTIKVERTDNNVKVKIEVQPYNSAGG [r19_220_TrROS] | 3.2 ± 0.11 | 2.49 ± 0.076 | 3.64 ± 0.039
16 | SAMSPEEIRARARALLEEKYPDKPYTLLSVEVDPSTGRVTVTWESPTPEKTTVTTPLTVTFGADGSLRESAG [r14_183_JUSTAS] | 2.02 ± 0.029 | 2.028 ± 0.012 | 1.973 ± 0.017
17 | SAGGSAGGSAGGSPDGWKFKMEMFTVKVPGAKITIPDGKSITLPPGKEVTIMIMTYVPPSAGGSAGGSAGGS [r4_26_TrROS] | 3.47 ± 0.092 | 2.25 ± 0.068 | 3.81 ± 0.086
18 | SKKPDYVILIEIEVEKNENGEKTIKKKIIIYDKNGKKKLIAEEEITIEVNGIKIKIKIKIFPKGASLEELSA [r9_1113_TrROS_Hall] | 2.87 ± 0.2 | 3.51 ± 0.26 | 2.23 ± 0.16
19 | SAGGSAGGPPPYYMVEIEIERRNPKNGKKQKFPVTVIMPPKEAEKIKDELEEWGYEIKVDVHPISAGGSAGG [r6_97_TrROS] | 0.74 ± 0.18 | 0.856 ± 0.15 | 0.393 ± 0.066
20 | SAGGSAGGSMKLEVEAELEVPLPNGKPKRFKVKFRVEPGESGVKVEVLEVDDPLVVEAIKKLFSAGGSAGGS [r12_743_TrMRF] | 2.65 ± 0.096 | 2.2 ± 0.034 | 3 ± 0.072
21 | SAGGSAGGSAGSMTPAEEKAREVEERLRREHPEFERVFVRVKEFRPETGEVTIEVEVEPRSAGGSAGGSAGG [r11_617_JUSTAS] | -0.0464 ± 0.12 | 0.292 ± 0.061 | -0.641 ± 0.27
